Where “and” joins values, the source holds several entries; their conditions need not be identical. Equal entries are not always repeated. Where two headings read alike, the source gives them in different places.
Key:
[1] = target: T1, SARS-CoV spike protein receptor binding domain (RBD1) (SARS-CoV, UniProt P59594 306-527); assay: ELISA, crude rabbit minibody
[2] = target: T1, SARS-CoV spike protein receptor binding …; assay: plate immunoassay on immobilized antigen, PE-labelled anti-rabbit/anti-human
[3] = target: T2, SARS-CoV-2 spike protein receptor binding domain (RBD2) (SARS-CoV-2, UniProt P0DTC2 319-537)
[4] = target: T2, SARS-CoV-2 spike protein receptor …; assay: flow cytometry, yeast-displayed scFv, titration of biotinylated antigen
[5] = target: T2, SARS-CoV-2 spike protein receptor …; assay: flow cytometry, yeast-displayed scFv
[6] = target: T2, SARS-CoV-2 spike protein receptor …; assay: flow cytometry, yeast-expressed scFv
[7] = target: T2, SARS-CoV-2 spike protein receptor …; remark: listed apart in the source

B1: H02 rabbit minibody (scFv-rabbit Fc) (Fc fusion)
scFv-Fc: QSVVTQPPSVSAAPGQKVTISCSGSSSNIGNNYVSWYQQLPGTAPKLLIYRDTQRPSGVPDRFSGSKSGTSASLAISGLRSEDEADYYCATWDKSLSGPVFGGGTKVTVLSGGSTITSYNVYYTKLSSSGTQVQLQQSGPGLVKPSQTLSLTCAISGDSVSSNSAAWNWIRQSPSRGLEWLGRTYYRSKWYNDYAVSVKSRIIINPDTSKNQFSLQLNSVTPEDTAVYYCARQDNNPYYGLDVWGQGTTVTVSS
binding result [1]: no binding

B2: S01 rabbit minibody (scFv-rabbit Fc) (Fc fusion)
chain: EIVMTQSPSSLSASVGDSVTITCQASQDISNYLNWYQQKPGKAPKLLIYDASNLETGVPSRFSGGGSGTDFTLTITSLQPEDIATYYCQQYDNFPPTFGPGTKVDIKSGGSTITSYNVYYTKLSSSDTQVQLVESGGGLVKPGGSLRLSCAASGFTVGSNYMSWVRQAPGKGLEWVSVIYSGGSTYYADSVKGRFTISRDNSKNTLYLQMNSLRAEDTAVYYCARGSSGAWYFDLWGRGTLVTVSS
binding result [2]: no binding

B3: S01 human minibody (scFv-human Fc) (Fc fusion)
chain: EIVMTQSPSSLSASVGDSVTITCQASQDISNYLNWYQQKPGKAPKLLIYDASNLETGVPSRFSGGGSGTDFTLTITSLQPEDIATYYCQQYDNFPPTFGPGTKVDIKSGGSTITSYNVYYTKLSSSDTQVQLVESGGGLVKPGGSLRLSCAASGFTVGSNYMSWVRQAPGKGLEWVSVIYSGGSTYYADSVKGRFTISRDNSKNTLYLQMNSLRAEDTAVYYCARGSSGAWYFDLWGRGTLVTVSS
binding result [2]: no binding

B4: D11 rabbit minibody (scFv-rabbit Fc) (Fc fusion)
scFv-Fc: SYELTQPPSVSVAPGQTARITCGGNNIGSKSVHWYQQKPGQAPVLVVYDDSDRPSGIPERFSGSNSGNTATLTISGTQAMDEADYYCQAWDSSTAYVFGSGTKLTVLSGGSTITSYNVYYTKLSSSGTQVQLEESGGGLVQPGGSLRLSCAASGFTFSNYAMSWVRQAPGKGLEWVSAISGSGGATFHADSVKGRFTISRDNSKNTLYLQMNSLRAEDTAVYYCARRVGYDSSGYYWSDAFDIWGQGTMVTVSS
binding result [1]: no binding

B5: D04 scFv (scFv)
scFv: SYVLTQPPSVSVAPGKTARITCGGNNIGWKSVHWYQQKPGQAPVLVVYNDNDRPSGVPERFSGSNSGNTATLTISRVVAGDEADYYCQVWDSSSDHVLFGGGTKLTVLSGGSTITSYNVYYTKLSSSGTQVQLVQSGAEVKKPGSSVKVSCKASGGTFSSYAISWVRQAPGQGLEWMGGIIPIFGTANYAQKFQGRVTITADESTSTAYMELSSLRSEDTAVYYCARASGRWLQFWHYYGMDVWGQGTTVTVS
Kd [3]: 33 nM
Kd [4]: 33 nM

B6: B04 scFv (scFv)
scFv: SYVLTQPPSVSVAPGKTARITCGGNNIGIRSVHWYQQKPGQAPVLVIYYDSDRPSGIPERFSGSKSGNTATLTISRVEAGDEADYYCQVWDSSSDHPVFGGGTKLTVLSGGSTITSYNVYYTKLSSSGTQVQLVESGAEVKKPGASVKVSCKASGYTFTRYYMHWVRQAPGQGLEWMGIINPSGGTTSYAQKFQGRVTMTRDTSTSTVYMELSSLRSEDTAVYYCARSFGELTSFDYWGQGTLVTVSS
Kd [3]: 13.9 nM
Kd [5]: 13.9 nM
Kd [4]: 13.9 nM

B7: H03 rabbit minibody (scFv-rabbit Fc) (Fc fusion)
scFv-Fc: SYELTQPPSVSVAPGQTARITCGGNNIGSKSVHWYQQKPGQAPVLVIYYDSDRPSGIPERFSGSNSGNTATLTISRVEAGDEADYYCQVWDSSSALYVFGTRTKVTVLSGGSTITSYNVYYTKLSSSGTQVQLVESGGGLVQPGRSLRLSCAASGFTFDDYAMHWVRQAPGKGLEWVSGISWNSGSIGYADSVKGRFTISRDNAKNSLYLQVNSLRAEDTAVYYCARELIVGTTSPQTDAFDIWGQGTMVTVSS
binding result [1]: no binding

B8: G07 rabbit minibody (scFv-rabbit Fc) (Fc fusion)
scFv-Fc: QSVLIQPPSASGTPGQRVTISCSGSNSNFGSNSVSWYQQRPGTAPKLLIEGNNQRPSGVPERFSGSKSGTSASLAISGLQSEDEAEYSCASWDDSLNAFVFGPGTKLTVLSGGSAITSYNVYYTKLSSSGTQVQLVQSGAEVKKPGESLKISCKGSGYSFTSYWIGWVRQMPGKGLEWMGIIYPGDSDIRYSPSFQGQVTISADKSFSSAYLQWSSLKASDTAMYYCARLGATGAFDIWGQGTTVTVSS
binding result [1]: no binding

B9: D07 scFv (scFv)
scFv: SYELTQPPSVSVAPGETARMTCGGNNIGTKGVHWYQQKPGQAPVLVVYDDSDRPSGIPERFSGSNAGNTATLTISRVEAGDEADYYCQVWDSRSDQYVFGTRTKLTVLSGGSTITSYNVYYTKLSSSGAQVTLKESGPVLVKPTETLTLTCTVSGFSLSNARMGVSWIRQPPGKALEWLAHIFSNGEKSYSTSLKSRLTISKDTSKSQVVLTMTNMDPVDTATYYCARTLDYYDSSGYLVGGAFDIWGQGTMVTVSS
Kd [3]: 113 nM and 138 nM
Kd [6]: 268 nM
Kd [4]: 113 nM

B10: H05 rabbit minibody (scFv-rabbit Fc) (Fc fusion)
scFv-Fc: SYVLTQPPSVSVAPGQTARITCGANNIGRISVHWYQQKPGQAPVLVVYDDSDRPSGIPERFSGSNFGNTATLTISRVEAGDEADYYCQVWDSYSDHVIFGGGTKLTVLSGGSTITSYNVYYTKLSSSGTQVQLVQSGAEVKKPGSSVKVSCKASGGTFSSYAISWVRQAPGQGLEWMGGIIPIFGTANYAQKFQGRVTITADESTSTAYMELSSLRSEDTAVYYCARSIFGVVIISHADGYYYGMDVWGQGTTVTVSS
binding result [1]: no binding

B11: R09 scFv (scFv)
scFv: QPGLTQPPSVSVSPGQTASITCSGDKLGYKYVSWYQQKPGQSPVLVIYEDTKRPSGIPKRFSGSNSGNTATLTICGTQAVDEADYYCQAWDSSVVFGGGTKLTVLSGGSTITSYNVYDTKLSSSGTQVQLVQSGAEVKKPGASVKVSCKASGYTFTSYGISWVRQAPGQGLEWMGWISAYNGNTNYAQKFQGRVTMTTDTSTSTAYMELRSLRSDDTAVYYCARDMELRPPFDYWGQGTLVTVSS
Kd [6]: 4820 nM

B12: F07 scFv (scFv)
scFv: SYVLTQPPSVSVAPGQTARITCGGNNIGSKSVHWYQQKPGQAPVLVVYDDSDRPSGIPERFSGSNSGNTATLIISRVEAGDEADYYCQVWDSSSVHYVFGTGTKLTVLSGGSTITSYNVYYTKLSSSGTQVQLVQSGAEVKKPGSSVRVSCKVSGYTFTGYYMHWVRQAPGQGLEWMGIINPSGGSTSYAQKFQGRVTMTRDTSTSTVYMELSSLRSEDTAVYYCARVRVGASDAFDIWGQGTMVTVSS
Kd [7]: 67.5 nM
Kd [6]: 280 nM
Kd [5]: 67.5 nM
Kd [4]: 67.5 nM

B13: E07 scFv (scFv)
scFv: SYVLTQPPSVSVAPGQTARITCGGNNIGSKSVHWYQQKPGQAPVLVVYDDSDRPSGIPERFSGSNSGNTATLIISRVEAGDEADYYCQVWDSSSVHYVFGTGTKLTVLSGGSTITSYNVYYTKLSSSGTQVQLVQSGAEVKKPGSSVRVSCKVSGYTFTGYYMHWVRQAPGQGLEWMGIINPSGGSTSYAQKFQGRVTMTRDTSTSTVYMELSSLRSEDTAVYYCARVRVGASDAFDIWGQGTMVTVSS
Kd [6]: 436 nM

B14: F07 rabbit minibody (scFv-rabbit Fc) (Fc fusion)
chain: SYVLTQPPSVSVAPGQTARITCGGNNIGSKSVHWYQQKPGQAPVLVVYDDSDRPSGIPERFSGSNSGNTATLIISRVEAGDEADYYCQVWDSSSVHYVFGTGTKLTVLSGGSTITSYNVYYTKLSSSGTQVQLVQSGAEVKKPGSSVRVSCKVSGYTFTGYYMHWVRQAPGQGLEWMGIINPSGGSTSYAQKFQGRVTMTRDTSTSTVYMELSSLRSEDTAVYYCARVRVGASDAFDIWGQGTMVTVSS
binding result [2]: no binding

B15: F07 human minibody (scFv-human Fc) (Fc fusion)
chain: SYVLTQPPSVSVAPGQTARITCGGNNIGSKSVHWYQQKPGQAPVLVVYDDSDRPSGIPERFSGSNSGNTATLIISRVEAGDEADYYCQVWDSSSVHYVFGTGTKLTVLSGGSTITSYNVYYTKLSSSGTQVQLVQSGAEVKKPGSSVRVSCKVSGYTFTGYYMHWVRQAPGQGLEWMGIINPSGGSTSYAQKFQGRVTMTRDTSTSTVYMELSSLRSEDTAVYYCARVRVGASDAFDIWGQGTMVTVSS
binding result [2]: no binding

B16: R26 rabbit minibody (scFv-rabbit Fc) (Fc fusion)
scFv-Fc: SYELTQPPSVSVAPGQTATITCGGKNIESKSVHWYQQKPGQAPVLVVSDDTDRASGIPERFSGSNSGGAATLTISRVEAGDEADYYCQVWDSPSDHYVFGPGTKLTVLSGGSTITSYNVYYTKLSSSGTQVQLVESGGGVVQPGRSLRLSCAASGFTFSSYAMHWVRQAPGKGLEWVAVISYDGSNKYYADSVKGRFTISRDKAKNTLYLQMNSLRGEDTAVYYCARELSYYDSSGYLRGDWYFDLWGRGTLVTVSS
binding result [1]: no binding

B17: E01 scFv (scFv)
scFv: SYELTQPPSVSVAPGETARITCGGDNIGRRHVHWYQQKPGQAPVLVIYDDSDRPSGIPDRFSGSNSGNTATLTIGRVEAGDEADYYCQVWGSSNDPHVFGTGTKLTVLSGGSTITSNNVYYTKLSSSGTQVQLQQWGAGLLKPSETLSLKCAVYGGSFSGYYWGWIRQSTGKGLEWIGEINRSGSTNYNPSLKSRVTISVDTSKNQFSLKLSSVTAADTAVYYCARGGARYYYGSGSYRSTPRPYYFDYWGQGTLVTVSS
notes: also called E1
Kd [7]: 13.9 nM
Kd [6]: 16.1 nM
Kd [5]: 13.9 nM
Kd [4]: 13.9 nM

B18: E01 rabbit minibody (scFv-rabbit Fc) (Fc fusion)
scFv-Fc: SYELTQPPSVSVAPGETARITCGGDNIGRRHVHWYQQKPGQAPVLVIYDDSDRPSGIPDRFSGSNSGNTATLTIGRVEAGDEADYYCQVWGSSNDPHVFGTGTKLTVLSGGSTITSNNVYYTKLSSSGTQVQLQQWGAGLLKPSETLSLKCAVYGGSFSGYYWGWIRQSTGKGLEWIGEINRSGSTNYNPSLKSRVTISVDTSKNQFSLKLSSVTAADTAVYYCARGGARYYYGSGSYRSTPRPYYFDYWGQGTLVTVSS
binding result [2]: no binding

Reference: US12018066 (TRIAD NATIONAL SECURITY, dated 2024)
